System: Roquin-1 (aa 2-441);NUFIP2 (aa 255-411) (mouse;human)
Experiment: EMSA
Conditions: 10 mM HEPES pH 7.5, 150 mM NaCl, 2 mM MgCl2, 4% glycerol, tRNA 30 ug/mL, 5 nM labeled RNA, 30 min at 25 °C; native 4% TBE PAGE

Row | Substance | Kd
1 | ICOS 3'-UTR tandem cis-element (nt 2183-2271) | 11.3 nM
2 | Ox40 3'-UTR tandem element (nt 1064-1126) | 10.7 nM

Reference: publication PMC5775257
